# Where “and” joins values, the source holds several entries; their conditions need not be identical. Equal values may be shown once.
# B1: Alpha-lactalbumin wild type, P00709 (protein)
# chain: MRFFVPLFLVGILFPAILAKQFTKCELSQLLKDIDGYGGIALPELICTMFHTSGYDTQAIVENNESTEYGLFQISNKLWCKSSQVPQSRNICDISCDKFLDDDITDDIMCAKKILDIKGIDYWLAHKALCTEKLEQWLCEKL
# Conditions: Homo sapiens, Urea, CD, phosphate citrate borate 2 mM 2 mM 2 mM, NaCl 10 mM, whole UniProt chain shown
protein,measurement,setting,value
B1,denaturant m value,"pH 2, 20 °C",0.54 kcal/mol/M and 0.67 kcal/mol/M
same,denaturant m value,"pH 7, 2 °C, transition: 3",0.95 kcal/mol/M and 0.55 kcal/mol/M
same,denaturant midpoint (higher = more stable),"pH 7, 2 °C, transition: 3",2.24 M and 2.34 M
same,unfolding free energy,"pH 7, 2 °C, transition: 3",2.13 kcal/mol and 1.27 kcal/mol
